Reference: article doi:10.1101/557116 (bioRxiv, 2019)

B1: GST-BST2 (80-147) (domain or fragment, human, UniProt Q10589 80-147, looked up)
chain: GFQDVEAQAATCNHTVMALMASLDAEKAQGQKKVEELEGEITTLNHKLQDASAEVERLRRENQVLSVR
B2: BST2 ectodomain (residues 47 to 159) WT (domain or fragment, human, UniProt Q10589 47-159, looked up)
chain: KANSEACRDGLRAVMECRNVTHLLQQELTEAQKGFQDVEAQAATCNHTVMALMASLDAEKAQGQKKVEELEGEITTLNHKLQDASAEVERLRRENQVLSVRIADKKYYPSSQD
B3: BST2 ectodomain (residues 47 to 159) R136A (domain or fragment, human, UniProt Q10589 47-159, looked up)
chain: KANSEACRDGLRAVMECRNVTHLLQQELTEAQKGFQDVEAQAATCNHTVMALMASLDAEKAQGQKKVEELEGEITTLNHKLQDASAEVEALRRENQVLSVRIADKKYYPSSQD
B4: BST2 ectodomain (residues 47 to 159) T90P (domain or fragment, human, UniProt Q10589 47-159, looked up)
chain: KANSEACRDGLRAVMECRNVTHLLQQELTEAQKGFQDVEAQAAPCNHTVMALMASLDAEKAQGQKKVEELEGEITTLNHKLQDASAEVERLRRENQVLSVRIADKKYYPSSQD
B5: BST2 ectodomain (residues 47 to 159) D129A (domain or fragment, human, UniProt Q10589 47-159, looked up)
chain: KANSEACRDGLRAVMECRNVTHLLQQELTEAQKGFQDVEAQAATCNHTVMALMASLDAEKAQGQKKVEELEGEITTLNHKLQAASAEVERLRRENQVLSVRIADKKYYPSSQD
B6: BST2 ectodomain (residues 47 to 159) Q87H (domain or fragment, human, UniProt Q10589 47-159, looked up)
chain: KANSEACRDGLRAVMECRNVTHLLQQELTEAQKGFQDVEAHAATCNHTVMALMASLDAEKAQGQKKVEELEGEITTLNHKLQDASAEVERLRRENQVLSVRIADKKYYPSSQD
B7: BST2 ectodomain (residues 47 to 159) L70D (domain or fragment, human, UniProt Q10589 47-159, looked up)
chain: KANSEACRDGLRAVMECRNVTHLDQQELTEAQKGFQDVEAQAATCNHTVMALMASLDAEKAQGQKKVEELEGEITTLNHKLQDASAEVERLRRENQVLSVRIADKKYYPSSQD
B8: BST2 ectodomain (residues 47 to 159) L127C (domain or fragment, human, UniProt Q10589 47-159, looked up)
chain: KANSEACRDGLRAVMECRNVTHLLQQELTEAQKGFQDVEAQAATCNHTVMALMASLDAEKAQGQKKVEELEGEITTLNHKCQDASAEVERLRRENQVLSVRIADKKYYPSSQD

What was measured:
[1] = biological target: bacILT7 24-435 (human, UniProt P59901 24-435); experiment: SPR
Sequence of bacILT7 24-435 (P59901 24-435): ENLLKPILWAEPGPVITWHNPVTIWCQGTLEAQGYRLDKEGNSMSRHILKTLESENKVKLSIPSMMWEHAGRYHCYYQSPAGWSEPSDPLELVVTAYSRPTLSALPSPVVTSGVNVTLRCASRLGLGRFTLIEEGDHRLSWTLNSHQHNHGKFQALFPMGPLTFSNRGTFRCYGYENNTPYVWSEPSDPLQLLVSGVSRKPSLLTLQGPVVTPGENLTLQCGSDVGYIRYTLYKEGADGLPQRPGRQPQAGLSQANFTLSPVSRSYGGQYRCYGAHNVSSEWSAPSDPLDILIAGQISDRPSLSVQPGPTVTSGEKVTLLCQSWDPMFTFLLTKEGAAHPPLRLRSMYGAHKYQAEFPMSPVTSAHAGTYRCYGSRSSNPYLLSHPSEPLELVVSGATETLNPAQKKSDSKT

[2] = biological target: bacILT7 24-223 (human, UniProt P59901 24-223, fluorescent label (Protein Labeling Kit RED-NHS)); experiment: MST
Sequence of bacILT7 24-223 (P59901 24-223): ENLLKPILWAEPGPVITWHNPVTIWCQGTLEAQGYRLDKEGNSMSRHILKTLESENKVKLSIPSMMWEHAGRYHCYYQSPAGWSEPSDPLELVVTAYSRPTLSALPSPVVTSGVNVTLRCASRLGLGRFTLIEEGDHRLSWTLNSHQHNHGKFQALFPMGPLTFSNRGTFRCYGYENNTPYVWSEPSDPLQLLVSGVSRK

[3] = biological target: the molecule itself; experiment: cross-linking

Binder | Kd [2] [µM] | further results
B1 |  | Kd [1]: 2.62 µM; koff [1]: 0.00238 s⁻¹; kon [1]: 908 M⁻¹ s⁻¹
B2 | 2.45 ± 0.3 | 
B3 |  | stoichiometry N [3]: 2
B4 | 4.49 ± 0.9 | 
B5 |  | stoichiometry N [3]: 2
B6 | 5.06 ± 1.1 | 
B7 | 5.55 ± 1 | 
B8 | 6.45 ± 1.2 | 
